Measurements as given in patent publication US20200306373A1 (Hoffmann-La Roche, published 2020).

T1: human ICOS (human, UniProt Q9Y6W8 21-199)
T1 sequence: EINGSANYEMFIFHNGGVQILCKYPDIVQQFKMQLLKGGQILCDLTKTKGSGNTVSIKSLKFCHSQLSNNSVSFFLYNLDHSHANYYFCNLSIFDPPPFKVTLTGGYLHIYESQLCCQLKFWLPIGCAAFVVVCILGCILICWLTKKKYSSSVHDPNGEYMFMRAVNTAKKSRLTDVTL

T2: human CEA (human, UniProt P06731 35-685)
T2 construct: Endogenous CEA on MKN45 human gastric adenocarcinoma cells; also called Carcinoembryonic antigen; CEACAM5
T2 sequence: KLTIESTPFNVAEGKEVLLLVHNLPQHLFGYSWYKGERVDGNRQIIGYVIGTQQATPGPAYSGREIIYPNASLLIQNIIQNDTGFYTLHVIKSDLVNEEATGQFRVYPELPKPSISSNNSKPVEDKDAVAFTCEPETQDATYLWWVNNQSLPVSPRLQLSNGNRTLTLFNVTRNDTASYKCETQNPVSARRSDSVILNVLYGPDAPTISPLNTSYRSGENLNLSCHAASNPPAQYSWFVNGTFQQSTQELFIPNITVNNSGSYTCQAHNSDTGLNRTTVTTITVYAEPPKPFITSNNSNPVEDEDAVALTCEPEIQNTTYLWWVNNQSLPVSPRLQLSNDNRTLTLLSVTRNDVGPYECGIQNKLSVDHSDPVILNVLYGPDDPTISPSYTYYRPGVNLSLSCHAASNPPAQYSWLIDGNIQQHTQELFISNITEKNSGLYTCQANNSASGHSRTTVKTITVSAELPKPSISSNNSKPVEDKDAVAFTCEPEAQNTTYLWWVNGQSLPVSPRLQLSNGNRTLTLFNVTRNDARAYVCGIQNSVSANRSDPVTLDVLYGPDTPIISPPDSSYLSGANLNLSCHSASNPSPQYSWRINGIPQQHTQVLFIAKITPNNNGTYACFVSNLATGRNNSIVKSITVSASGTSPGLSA

T3: murine ICOS (murine, UniProt Q9WVS0 21-200)
T3 sequence: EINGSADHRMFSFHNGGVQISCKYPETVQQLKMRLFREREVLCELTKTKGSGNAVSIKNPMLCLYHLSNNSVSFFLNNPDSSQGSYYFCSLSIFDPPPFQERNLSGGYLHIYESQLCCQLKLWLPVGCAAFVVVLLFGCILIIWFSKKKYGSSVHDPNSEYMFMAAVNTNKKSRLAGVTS


What was measured:
[1] = biological target: T1, human ICOS; experiment: cell-based or functional assay
[2] = biological target: T2, human CEA; experiment: flow cytometry on MKN45 cells (human CEA), Alexa Fluor 647 anti-human Fc secondary, frequency of A647+ cells
Procedure: Briefly, human PBMCs, isolated from either Buffy Coats or fresh blood from healthy human donors (as described in Example 5.1) were incubated in a humidified incubator at 37° C. for 48 hours in RPMI1640 medium including […] PHA-L (Roche, #11249738001) and 100 units/ml recombinant human IL-2 (“Proleukin”, Novartis) at a cell density of 1 million cells per ml.
At the day of the assay, pre-activated PBMCs cells were harvested, washed with PBS, and 0.2 million cells in FACS buffer (PBS with 0.1% BSA) were plated per well of a 96-round bottom-well plate. Likewise, adherent MKN45 tumor cells were detached using trypsin (Gibco, 25300-054), washed and 0.15 million cells were transferred into the 96-round bottom well-plate. […] Cells were washed with FACS buffer and the staining was fixed for 20 min at 4° C. in the dark, using 75 µl of 1% PFA in FACS buffer per well. Cells were washed again two times with FACS Buffer and re-suspended in FACS Buffer for analysis.
(§1) Fluorescence was analyzed by FACS using a FACS Fortessa (Software FACS Diva). Binding curves and EC₅₀ values were obtained using GraphPadPrism6.

[3] = biological target: T3, murine ICOS; experiment: cell-based or functional assay
[4] = biological target: T4, murine FAP (mFAP) (murine, UniProt P97321 1-761); experiment: flow cytometry on NIH/3T3-moFAP cl.34 cells
T4 construct: Expressed on 3T3-mFAP / NIH/3T3-moFAP cl.34 cells; also called mouse FAP; moFAP
Procedure: (§2) Briefly, adherent MKN45, NIH/3T3-moFAP or CHO-mICOS cells were detached using trypsin (Gibco, 25300-054), washed and 0.1 million cells were transferred into a 96-round bottom well-plate. […] Thereafter, cells were washed twice with cold PBS 0.1% BSA and further incubated for further 30 min at 4° C. with a labeled secondary antibody (PE-conjugated, #715-116-150 from Jackson Immuno Research Lab, diluted 1 to 50 in FACS buffer). Cells were washed with FACS buffer and the staining was fixed for 20 min at 4° C. in the dark, using 75 μl of 1% PFA in FACS buffer per well. Cells were washed twice with FACS Buffer and re-suspended in FACS Buffer for analysis.
as §1

[5] = biological target: T3, murine ICOS; experiment: flow cytometry on CHO cells expressing murine ICOS
Procedure: as §2, §1

[6] = biological target: T3, murine ICOS; experiment: flow cytometry on CHO cells stably overexpressing murine ICOS, PE secondary, axis % Binding to murine ICOS
Procedure: as §2, §1

[7] = biological target: T4, murine FAP (mFAP); experiment: flow cytometry on NIH/3T3-moFAP cells stably overexpressing murine FAP, PE secondary, axis % Binding to murine FAP
Procedure: as §2, §1

T4 sequence (P97321 whole entry): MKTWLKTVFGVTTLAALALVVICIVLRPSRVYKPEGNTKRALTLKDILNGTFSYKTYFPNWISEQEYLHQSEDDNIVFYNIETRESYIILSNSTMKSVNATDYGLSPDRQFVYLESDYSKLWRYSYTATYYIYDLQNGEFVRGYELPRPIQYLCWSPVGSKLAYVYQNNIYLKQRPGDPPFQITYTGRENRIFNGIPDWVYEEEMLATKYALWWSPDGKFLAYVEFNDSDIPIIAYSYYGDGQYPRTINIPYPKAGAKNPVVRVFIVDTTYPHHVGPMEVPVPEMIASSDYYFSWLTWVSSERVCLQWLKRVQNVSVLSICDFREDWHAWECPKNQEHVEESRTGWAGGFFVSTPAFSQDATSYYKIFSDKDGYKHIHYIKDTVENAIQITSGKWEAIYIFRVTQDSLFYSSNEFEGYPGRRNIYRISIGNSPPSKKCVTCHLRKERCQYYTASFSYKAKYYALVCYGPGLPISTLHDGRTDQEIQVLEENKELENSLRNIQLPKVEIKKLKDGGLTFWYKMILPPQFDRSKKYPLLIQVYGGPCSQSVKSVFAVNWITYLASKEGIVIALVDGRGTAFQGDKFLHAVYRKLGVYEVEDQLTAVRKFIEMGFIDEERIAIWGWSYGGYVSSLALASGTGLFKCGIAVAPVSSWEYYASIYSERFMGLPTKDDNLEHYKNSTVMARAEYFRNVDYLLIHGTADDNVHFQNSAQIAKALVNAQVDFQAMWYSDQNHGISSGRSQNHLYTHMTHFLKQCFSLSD

Row | Fold increase vs TCB only at 200 pM CEA-ICOS (% CD69^+CD4^+), Donor 1 (D1) [1] [fold] | Fold increase vs TCB only at 200 pM CEA-ICOS (% CD69^+CD4^+), Donor 2 (D2) [1] [fold] | Fold increase vs TCB only at 1000 pM CEA-ICOS (% CD69^+CD4^+), Donor 1 (D1) [1] [fold] | Fold increase vs TCB only at 1000 pM CEA-ICOS (% CD69^+CD4^+), Donor 2 (D2) [1] [fold] | EC50 (read off the curve) [2] [nM] | Fold increase vs TCB only at 3 nM CEA- or FAP-ICOS, % CD69^+CD4^+ [3] [fold] | Fold increase vs TCB only at 3 nM CEA- or FAP-ICOS, % CD69^+CD8^+ [3] [fold] | Fold increase vs TCB only at 75 nM CEA- or FAP-ICOS, % CD69^+CD4^+ [3] [fold] | Fold increase vs TCB only at 75 nM CEA- or FAP-ICOS, % CD69^+CD8^+ [3] [fold] | EC50 [4] [nM] | EC50 [5] [nM] | EC50 (read off the curve) [6] [nM] | EC50 (read off the curve) [7] [nM] | Binder
1 | 5.17 | 2.86 | 5.52 | 1.99 | ~0.5 |  |  |  |  |  |  |  |  | ICOS(JMab136)-CEA(MEDI-565) 2+1, CEA-ICOS_2+1 huIgG1 P329G LALA, bivalent ICOS (JMAb136), monovalent CEA (MEDI-565) (bispecific antibody, Human IgG1 P329G LALA, knob-into-hole; also called CEA(MEDI565)-ICOS(JMAb136)_2 + 1) heavy 1: not shown heavy 2: not shown light: DIQMTQSPSSVSASVGDRVTITCRASQGISRLLAWYQQKPGKAPKLLIYVASSLQSGVPSRFSGSGSGTDFTLTISSLQPEDFATYYCQQANSFPWTFGQGTKVEIKRTVAAPSVFIFPPSDRKLKSGTASVVCLLNNFYPREAKVQWKVDNALQSGNSQESVTEQDSKDSTYSLSSTLTLSKADYEKHKVYACEVTHQGLSSPVTKSFNRGEC
2 |  |  |  |  |  | 1.1 | 2.3 | 1.1 | 2.4 | 2.86 | 2.88 | ~3 | ~3 | ICOS(16E09)-FAP(28H1) 2+1, FAP-targeted anti-murine ICOS_2+1, mIgG1 DAPG, bivalent murine ICOS (16E09), monovalent FAP (28H1) (bispecific antibody, Murine IgG1 DAPG DDKK; also called ICOS(16E09)-FAP(28H1) 2 + 1 muIgG1 DAPG) heavy 1: EVQLVQSGAEVKKPGESLKISCKGSGYSFTSYWIGWVRQMPGKGLEWMGIIYPGDSDTRYSPSFQGQVTISADKSISTAYLQWSSLKASDTAMYYCARSSGPYGLYLDYWGQGTLVTVSSAKTTPPSVYPLAPGSAAQTNSMVTLGCLVKGYFPEPVTVTWNSGSLSSGVHTFPAVLQSDLYTLSSSVTVPSSTWPSQTVTCNVAHPASSTKVDKKIVPRDCGCKPCICTVPEVSSVFIFPPKPKDVLTITLTPKVTCVVVAISKDDPEVQFSWFVDDVEVHTAQTKPREEQINSTFRSVSELPIMHQDWLNGKEFKCRVNSAAFGAPIEKTISKTKGRPKAPQVYTIPPPKEQMAKDKVSLTCMITNFFPEDITVEWQWNGQPAENYDNTQPIMDTDGSYFVYSDLNVQKSNWEAGNTFTCSVLHEGLHNHHTEKSLSHSPGGGGGSGGGGSGGGGSGGGGSEIVLTQSPGTLSLSPGERATLSCRASQSVSRSYLAWYQQKPGQAPRLLIIGASTRATGIPDRFSGSGSGTDFTLTISRLEPEDFAVYYCQQGQVIPPTFGQGTKVEIK heavy 2: EVQLVQSGAEVKKPGESLKISCKGSGYSFTSYWIGWVRQMPGKGLEWMGIIYPGDSDTRYSPSFQGQVTISADKSISTAYLQWSSLKASDTAMYYCARSSGPYGLYLDYWGQGTLVTVSSAKTTPPSVYPLAPGSAAQTNSMVTLGCLVKGYFPEPVTVTWNSGSLSSGVHTFPAVLQSDLYTLSSSVTVPSSTWPSQTVTCNVAHPASSTKVDKKIVPRDCGCKPCICTVPEVSSVFIFPPKPKDVLTITLTPKVTCVVVAISKDDPEVQFSWFVDDVEVHTAQTKPREEQINSTFRSVSELPIMHQDWLNGKEFKCRVNSAAFGAPIEKTISKTKGRPKAPQVYTIPPPKKQMAKDKVSLTCMITNFFPEDITVEWQWNGQPAENYKNTQPIMKTDGSYFVYSKLNVQKSNWEAGNTFTCSVLHEGLHNHHTEKSLSHSPGGGGGSGGGGSGGGGSGGGGSEVQLLESGGGLVQPGGSLRLSCAASGFTFSSHAMSWVRQAPGKGLEWVSAIWASGEQYYADSVKGRFTISRDNSKNTLYLQMNSLRAEDTAVYYCAKGWLGNFDYWGQGTLVTVSS light: not shown
3 |  |  |  |  |  | 1.2 | 1.9 | 1.2 | 1.9 | 0.142 | 17.1 |  | ~0.1 | ICOS(16E09)-FAP(28H1) 1+1, FAP-targeted anti-murine ICOS_1+1, mIgG1 DAPG, monovalent murine ICOS (16E09), monovalent FAP (28H1) (bispecific antibody, Murine IgG1 DAPG DDKK; also called ICOS(16E09)-FAP(28H1) 1 + 1 muIgG1 DAPG) heavy 1: EVQLVQSGAEVKKPGESLKISCKGSGYSFTSYWIGWVRQMPGKGLEWMGIIYPGDSDTRYSPSFQGQVTISADKSISTAYLQWSSLKASDTAMYYCARSSGPYGLYLDYWGQGTLVTVSSAKTTPPSVYPLAPGSAAQTNSMVTLGCLVEGYFPEPVTVTWNSGSLSSGVHTFPAVLQSDLYTLSSSVTVPSSTWPSQTVTCNVAHPASSTKVDEKIVPRDCGCKPCICTVPEVSSVFIFPPKPKDVLTITLTPKVTCVVVAISKDDPEVQFSWFVDDVEVHTAQTKPREEQINSTFRSVSELPIMHQDWLNGKEFKCRVNSAAFGAPIEKTISKTKGRPKAPQVYTIPPPKEQMAKDKVSLTCMITNFFPEDITVEWQWNGQPAENYDNTQPIMDTDGSYFVYSDLNVQKSNWEAGNTFTCSVLHEGLHNHHTEKSLSHSP heavy 2: EIVLTQSPGTLSLSPGERATLSCRASQSVSRSYLAWYQQKPGQAPRLLIIGASTRATGIPDRFSGSGSGTDFTLTISRLEPEDFAVYYCQQGQVIPPTFGQGTKVEIKSSAKTTPPSVYPLAPGSAAQTNSMVTLGCLVKGYFPEPVTVTWNSGSLSSGVHTFPAVLQSDLYTLSSSVTVPSSTWPSQTVTCNVAHPASSTKVDKKIVPRDCGCKPCICTVPEVSSVFIFPPKPKDVLTITLTPKVTCVVVAISKDDPEVQFSWFVDDVEVHTAQTKPREEQINSTFRSVSELPIMHQDWLNGKEFKCRVNSAAFGAPIEKTISKTKGRPKAPQVYTIPPPKKQMAKDKVSLTCMITNFFPEDITVEWQWNGQPAENYKNTQPIMKTDGSYFVYSKLNVQKSNWEAGNTFTCSVLHEGLHNHHTEKSLSHSP light 1: not shown light 2: EVQLLESGGGLVQPGGSLRLSCAASGFTFSSHAMSWVRQAPGKGLEWVSAIWASGEQYYADSVKGRFTISRDNSKNTLYLQMNSLRAEDTAVYYCAKGWLGNFDYWGQGTLVTVSSASDAAPTVSIFPPSSEQLTSGGASVVCFLNNFYPKDINVKWKIDGSERQNGVLNSWTDQDSKDSTYSMSSTLTLTKDEYERHNSYTCEATHKTSTSPIVKSFNRNEC
